Assay [1] addresses ATM (ataxia-telangiectasia mutated) kinase (mouse (endogenous in cerebellar tissue)) (UniProt Q62388). As to the kind of experiment: non-reducing SDS-PAGE and immunoblot; ex vivo mouse cerebellar tissue culture exposed to glargine (100 nM, 2 h); proteins denatured in 2% SDS without boiling, separated under nonreducing conditions at 4 °C; the NOX4 antagonist GLX7013114 or shRNA impeded the insulin-induced dimerization. Background: Immunoblotting shows a protein as a band on a membrane.

For assay [2], the target named is PKM2 (pyruvate kinase M2) (mouse (endogenous in cerebellar tissue)) (UniProt P52480). As to the kind of experiment: cross-linking; 5 mM disuccinimidyl suberate (DSS), 30 min, room temperature, quenched with Tris, then immunoblot for PKM2; mouse cerebellar tissue of Atm-WT and Atm-KO, also with TEPP-46.
For assay [3] the target is unchanged. The assay is described as above. This is another data set of the same source.

For 2 substances, stoichiometry N results are on record in publication PMC12540671.

Like-named read-outs stand apart in the source and are kept apart here.

Chain of PKM2 (pyruvate kinase M2), P52480 1-531 (enzyme; other documents disagree on this pair) (P52480 whole entry): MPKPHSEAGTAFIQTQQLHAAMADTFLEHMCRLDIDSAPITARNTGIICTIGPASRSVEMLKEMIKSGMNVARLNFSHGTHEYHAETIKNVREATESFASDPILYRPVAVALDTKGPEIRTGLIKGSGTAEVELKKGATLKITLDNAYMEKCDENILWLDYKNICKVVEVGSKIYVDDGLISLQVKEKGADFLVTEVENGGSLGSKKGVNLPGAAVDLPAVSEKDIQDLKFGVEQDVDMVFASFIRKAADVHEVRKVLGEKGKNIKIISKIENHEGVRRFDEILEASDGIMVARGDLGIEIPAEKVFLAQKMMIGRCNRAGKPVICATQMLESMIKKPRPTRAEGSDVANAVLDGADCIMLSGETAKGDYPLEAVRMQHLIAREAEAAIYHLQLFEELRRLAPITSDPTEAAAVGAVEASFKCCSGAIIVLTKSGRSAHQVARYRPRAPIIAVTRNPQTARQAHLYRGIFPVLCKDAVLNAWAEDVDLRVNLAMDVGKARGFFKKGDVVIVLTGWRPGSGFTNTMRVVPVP

What is called stoichiometry N is a count of units in the complex or per binding partner. Take “ATM (ataxia-telangiectasia mutated) kinase, Q62388 1-3066”: the stoichiometry N in assay [1] is 2.

For “PKM2 (pyruvate kinase M2), P52480 1-531 (enzyme; other documents disagree on this pair)”, the stoichiometry N was 4 in assay [2] and 2 in assay [3].
